Results published in the RNAGym collection of RNA variant scans (doi:10.1021/acssynbio.7b00057).

B1: Pistol ribozyme (parent)
chain: GGGUCGUUGUUCCAUAAUCGCGUGGAUAUGGCACGCAAGUUUCUACCGGGCACCGUAAAUGUCCGACUGGAGCCGUUCGGGCGGCUAUAAACAGACCUCAGGCCCGAAGCGUGGCGGCACCUGCCGCCGGUGGUAAAAAAGAUCGGAAGAGCACACGUCU

Variants of: B1
Experiment: aptazyme ON/OFF ratio, guanine; higher = stronger switching; co-transcriptional cleavage with and without guanine

| Variant | aptazyme ON/OFF ratio |
| --- | --- |
| U7G U11G C12A C13G | 1.11 |
| U7G U11G C12A C13A | 1.13 |
| U7G U11G C12A C13U | 1.14 |
| U7G U10G U11G C12A | 1.08 |
| U7G U10G U11G C12G | 1.15 |
| U7G U10G U11G C12U | 1.24 |
| U8A C13U | 1.43 |
| U8A C13A | 1.24 |
| U8A C13G | 1.11 |
| U8A G9A U10A U11G C12A C13G | 1.18 |
| U8A G9A U10A U11G C12A C13U | 1.11 |
| U8A G9A U10A U11G C12A C13A | 1.03 |
| U8A G9A U10A U11G C12G | 1.15 |
| U8A G9A U10A U11G C12U | 1.15 |
| U8A G9A U10A U11G C12A | 1.01 |
| U8A G9A U10A C13A | 1.26 |
| U8A G9A U10A C13U | 1.2 |
| U8A G9A U10A C13G | 1.1 |
| U8A G9A U10A C12G C13G | 1.28 |
| U8A G9A U10A C12G C13A | 1.25 |
| U8A G9A U10A C12G C13U | 1.42 |
| U8A G9A U10A U11C C12A C13U | 1.25 |
| U8A G9A U10A U11C C12A C13G | 1.16 |
| U8A G9A U10A U11C C12A C13A | 1.19 |

| Variant | aptazyme ON/OFF ratio |
| --- | --- |
| U8A G9A U10A C12A C13A | 1.17 |
| U8A G9A U10A C12A C13G | 1.17 |
| U8A G9A U10A C12A C13U | 1.39 |
| U8A C12G C13U | 1.24 |
| U8A C12G C13A | 1.48 |
| U8A C12G C13G | 1.18 |
| U8A C12U | 1.62 |
| U8A C12A | 1.3 |
| U8A C12G | 1.46 |
| U8A G9A U10A U11A C12U C13U | 1.21 |
| U8A G9A U10A U11A C12U C13A | 1.37 |
| U8A G9A U10A U11A C12U C13G | 1.1 |
| U8A G9A | 1.91 |
| U8A G9A U10A U11C C13G | 1.04 |
| U8A G9A U10A U11C C13U | 1.05 |
| U8A G9A U10A U11C C13A | 1.04 |
| U8A G9A U10A U11G C13A | 1.12 |
| U8A G9A U10A U11G C13G | 1.08 |
| U8A G9A U10A U11G C13U | 1.18 |
| U8A G9A C13A | 1.19 |
| U8A G9A C13U | 1.23 |
| U8A G9A C13G | 1.12 |
| U7G U11A C12G C13G | 1.11 |
| U7G U11A C12G C13U | 1.12 |

| Variant | aptazyme ON/OFF ratio |
| --- | --- |
| U7G U11A C12G C13A | 1.08 |
| U7G U11A C12U C13U | 1.28 |
| U7G U11A C12U C13A | 1.19 |
| U7G U11A C12U C13G | 1.14 |
| U7G U10G U11G C13U | 1.2 |
| U7G U10G U11G C13G | 1.18 |
| U7G U10G U11G C13A | 1.16 |
| U8A G9A C12A | 1.34 |
| U8A G9A C12U | 1.33 |
| U8A G9A C12G | 1.41 |
| U8A C12A C13U | 1.19 |
| U8A C12A C13G | 1.13 |
| U8A C12A C13A | 1.24 |
| U7G U11C C12A | 1.21 |
| U7G U11C C12U | 1.27 |
| U7G U11C C12G | 1.26 |
| U8A G9A U10A U11G C12U C13G | 1.18 |
| U8A G9A U10A U11G C12U C13U | 1.4 |
| U8A G9A U10A U11G C12U C13A | 1.3 |
| U7G U10G U11G C12G C13G | 1.11 |
| U7G U10G U11G C12G C13U | 1.29 |
| U7G U10G U11G C12G C13A | 1.1 |
| U7G U11G C12G C13A | 1.09 |
| U7G U11G C12G C13U | 1.04 |

| Variant | aptazyme ON/OFF ratio |
| --- | --- |
| U7G U11G C12G C13G | 1.14 |
| U8A G9A U10A U11C C12G C13G | 1.21 |
| U8A G9A U10A U11C C12G C13U | 1.25 |
| U8A G9A U10A U11C C12G C13A | 1.16 |
| U7G U10G U11G | 1.53 |
| U7G U11G C12U | 1.2 |
| U7G U11G C12G | 1.23 |
| U7G U11G C12A | 1.11 |
| U7G U11C C13U | 1.07 |
| U7G U11C C13G | 1.08 |
| U7G U11C C13A | 1.03 |
| U7G U11C C12G C13U | 1.14 |
| U7G U11C C12G C13G | 1.09 |
| U7G U11C C12G C13A | 1.2 |
| U8A G9A U10A U11C C12A | 1.09 |
| U8A G9A U10A U11C C12G | 1.13 |
| U8A G9A U10A U11C C12U | 1.08 |
| U8A G9A C12A C13U | 1.19 |
| U8A G9A C12A C13G | 1.1 |
| U8A G9A C12A C13A | 1.3 |
| U8A G9A U10A U11A C12G C13U | 1.16 |
| U8A G9A U10A U11A C12G C13A | 1.29 |
| U8A G9A U10A U11A C12G C13G | 1.18 |
| U7G U11A C12A C13G | 1.14 |

| Variant | aptazyme ON/OFF ratio |
| --- | --- |
| U7G U11A C12A C13U | 1.22 |
| U7G U11A C12A C13A | 1.17 |
| U7G U11G C13U | 1.1 |
| U7G U11G C13G | 1.08 |
| U7G U11G C13A | 1.06 |
| U8A G9A C12U C13A | 1.19 |
| U8A G9A C12U C13G | 1.17 |
| U8A G9A C12U C13U | 1.11 |
| U7G U10G U11G C12U C13G | 1.17 |
| U7G U10G U11G C12U C13A | 1.13 |
| U7G U10G U11G C12U C13U | 1.36 |
| U8A G9A U10A U11C C12U C13A | 1.14 |
| U8A G9A U10A U11C C12U C13U | 1.15 |
| U8A G9A U10A U11C C12U C13G | 1.17 |
| U7G U11A C12G | 1.18 |
| U7G U11A C12U | 1.68 |
| U7G U11A C12A | 1.16 |
| U8A | 2.82 |
| U7G U10G U11C C13G | 1.07 |
| U7G U10G U11C C13U | 1.13 |
| U7G U10G U11C C13A | 1.11 |
| U8A G9A U10A U11A C12A C13U | 1.27 |
| U8A G9A U10A U11A C12A C13A | 1.29 |
| U8A G9A U10A U11A C12A C13G | 1.1 |

| Variant | aptazyme ON/OFF ratio |
| --- | --- |
| U8A C12U C13U | 1.38 |
| U8A C12U C13A | 1.28 |
| U8A C12U C13G | 1.35 |
| U7G U10G U11G C12A C13G | 1.1 |
| U7G U10G U11G C12A C13U | 1.13 |
| U7G U10G U11G C12A C13A | 1.08 |
| U8A G9A U10A U11A C13U | 1.09 |
| U8A G9A U10A U11A C13A | 1.27 |
| U8A G9A U10A U11A C13G | 1.06 |
| U8A G9A U10A C12U C13G | 1.24 |
| U8A G9A U10A C12U C13U | 1.33 |
| U8A G9A U10A C12U C13A | 1.2 |
| U8A G9A C12G C13A | 1.36 |
| U8A G9A C12G C13U | 1.18 |
| U8A G9A C12G C13G | 1.2 |
| U8A G9A U10A | 1.65 |
| U8A G9A U10C | 2.54 |
| U8A G9A U10A C12U | 1.24 |
| U8A G9A U10A C12G | 1.17 |
| U8A G9A U10A C12A | 1.43 |
| U8A G9A U10A U11C | 1.05 |
| U8A G9A U10A U11G | 1.34 |
| U8A G9A U10A U11A | 1.35 |
| U7G U11A | 2.37 |

| Variant | aptazyme ON/OFF ratio |
| --- | --- |
| U7G U11G | 1.32 |
| U7G U11C | 1.11 |
| U7G U11G C12U C13A | 1.14 |
| U7G U11G C12U C13U | 1.2 |
| U7G U11G C12U C13G | 1.12 |
| U7G U11C C12A C13U | 1.22 |
| U7G U11C C12A C13A | 1.12 |
| U7G U11C C12A C13G | 1.1 |
| U8A G9A U10A U11A C12G | 1.24 |
| U8A G9A U10A U11A C12U | 1.13 |
| U8A G9A U10A U11A C12A | 1.24 |
| U8A G9A U10A U11G C12G C13G | 1.4 |
| U8A G9A U10A U11G C12G C13U | 1.29 |
| U8A G9A U10A U11G C12G C13A | 1.21 |
| U7G U11A C13U | 1.36 |
| U7G U11A C13A | 1.16 |
| U7G U11A C13G | 1.08 |
| U7G U11C C12U C13U | 1.19 |
| U7G U11C C12U C13G | 1.1 |
| U7G U11C C12U C13A | 1.13 |
| U7G U10G U11C C12U C13U | 1.25 |
| U7G U10G U11C C12U C13A | 1.08 |
| U7G U10G U11C C12U C13G | 1.3 |
